T1: Bacillus stearothermophilus DnaB helicase (Bacillus stearothermophilus, UniProt Q9X4C9 1-454)
T1 sequence: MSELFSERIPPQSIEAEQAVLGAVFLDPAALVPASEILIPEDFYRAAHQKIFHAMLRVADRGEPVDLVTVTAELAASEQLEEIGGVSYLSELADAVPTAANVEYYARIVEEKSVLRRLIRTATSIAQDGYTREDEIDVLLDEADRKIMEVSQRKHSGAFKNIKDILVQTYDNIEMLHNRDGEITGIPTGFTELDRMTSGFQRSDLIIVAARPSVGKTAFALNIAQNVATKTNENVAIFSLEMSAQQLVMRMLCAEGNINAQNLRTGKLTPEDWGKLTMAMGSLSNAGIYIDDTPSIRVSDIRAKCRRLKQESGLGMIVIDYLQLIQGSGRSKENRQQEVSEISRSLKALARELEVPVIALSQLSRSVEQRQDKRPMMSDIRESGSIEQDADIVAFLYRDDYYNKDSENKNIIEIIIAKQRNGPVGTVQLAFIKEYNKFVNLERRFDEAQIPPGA


Key:
[1] = molecular target: T1, Bacillus stearothermophilus DnaB …; experiment: SPR
[2] = molecular target: T1, Bacillus stearothermophilus DnaB …; experiment: SEC

stoichiometry N [1]	binding result [2]	Binder
1 DnaI per stearoDnaB subunit	–	Bacillus subtilis DnaI (wild type) (natural protein) MEPIGRSLQGVTGRPDFQKRLEQMKEKVMKDQDVQAFLKENEEVIDQKMIEKSLNKLYEYIEQSKNCSYCSEDENCNNLLEGYHPKLVVNGRSIDIEYYECPVKRKLDQQKKQQSLMKSMYIQQDLLGATFQQVDISDPSRLAMFQHVTDFLKSYNETGKGKGLYLYGKFGVGKTFMLAAIANELAEKEYSSMIVYVPEFVRELKNSLQDQTLEEKLNMVKTTPVLMLDDIGAESMTSWVRDEVIGTVLQHRMSQQLPTFFSSNFSPDELKHHFTYSQRGEKEEVKAARLMERILYLAAPIRLDGENRRHP
–	binds	B. subtilis DnaI C101A mutant (natural protein) MEPIGRSLQGVTGRPDFQKRLEQMKEKVMKDQDVQAFLKENEEVIDQKMIEKSLNKLYEYIEQSKNCSYCSEDENCNNLLEGYHPKLVVNGRSIDIEYYEAPVKRKLDQQKKQQSLMKSMYIQQDLLGATFQQVDISDPSRLAMFQHVTDFLKSYNETGKGKGLYLYGKFGVGKTFMLAAIANELAEKEYSSMIVYVPEFVRELKNSLQDQTLEEKLNMVKTTPVLMLDDIGAESMTSWVRDEVIGTVLQHRMSQQLPTFFSSNFSPDELKHHFTYSQRGEKEEVKAARLMERILYLAAPIRLDGENRRHP

— PMC1636449 (Nucleic Acids Research, 2006)
